Data: patent CN116003603A (CR BIO MEDICAL INC, dated 2023)
Changes are numbered by the printed parent chain. Values belong to the binder of their own block, whether it stands above or below them.

Columns and labels:
[1] = biological target: T1, CLDN18.2 (antigen of the ka/kd/KD measurement, species and form not stated); assay: affinity measurement, method not described (Table 2-2, headed P1530)
[2] = biological target: T2, CLDN18.2 (on CLDN18.2过表达细胞, species not stated); assay: flow cytometry, antibody titration on CLDN18.2 over-expressing cells, MFI (Table 2-2, headed P1530)
T2 construct: whole, on cells

[3] = biological target: T1, CLDN18.2 (antigen of the ka/kd/KD …); assay: affinity measurement, method not described
[4] = biological target: T2, CLDN18.2 (on CLDN18.2过表达细胞, species not …); assay: flow cytometry, antibody titration on CLDN18.2 over-expressing cells, MFI

T1 sequence (P56856 other isoform, or with tags, fused parts or gaps): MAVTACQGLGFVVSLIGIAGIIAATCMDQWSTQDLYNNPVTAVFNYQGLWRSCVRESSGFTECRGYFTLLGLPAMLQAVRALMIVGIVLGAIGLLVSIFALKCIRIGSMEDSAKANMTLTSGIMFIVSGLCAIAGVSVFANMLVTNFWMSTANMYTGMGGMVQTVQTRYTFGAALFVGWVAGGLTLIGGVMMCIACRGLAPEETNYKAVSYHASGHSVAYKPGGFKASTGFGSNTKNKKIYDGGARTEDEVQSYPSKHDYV

Kd [1]: 6.8 nM
koff [1]: 0.00355 s⁻¹
kon [1]: 523000 M⁻¹ s⁻¹
EC50 [2]: 0.62 µg/mL
B1: CLDN-BC-P1530-hH1 (antibody, V domains shown)
VH: QVQLVESGGGLVQPGGSLRLSCAASRFTFSNYAMNWVRQAPGKGLEWVSSISGSGGSSYYADSVKGRFTISKDNSQNMLYLQMNSLRAEDTAVYYCAKADWKYGYYGMDVWGQGTTVTVSS
VL: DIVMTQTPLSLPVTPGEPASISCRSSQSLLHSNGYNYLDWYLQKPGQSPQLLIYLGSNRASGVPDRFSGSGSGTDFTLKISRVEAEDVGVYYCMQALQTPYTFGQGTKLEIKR
notes: also called P1530-IgG1

Kd [3]: 5.9 nM
koff [3]: 0.00293 s⁻¹
kon [3]: 497000 M⁻¹ s⁻¹
EC50 [4]: 0.69 µg/mL
B2: CLDN-BC-P1531-hH1 (antibody, V domains shown)
VH: B1 VH with T116M
VL: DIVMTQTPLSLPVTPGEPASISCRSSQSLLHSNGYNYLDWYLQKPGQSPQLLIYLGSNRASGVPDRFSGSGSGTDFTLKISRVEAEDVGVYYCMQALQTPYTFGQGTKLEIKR
notes: also called CLN-P1531-hH1; P1531-IgG1
